According to patent US20120052007A1, “PERIPHERAL BLOOD SPARC BINDING ANTIBODIES AND USES THEREOF” (ABRAXIS BIOSCIENCE, LLC, priority 2010, published 2012):

How the values were obtained:
PC3 (prostate) = experiment: PC3 prostate cancer xenograft; type: in vivo, mice; settings: nab-paclitaxel 10 mg/kg, P<0.001 (FIG. 24D)
Procedure: (§1) Control animals for each xenograft were administered PBS. […] Animal weights were measured twice weekly.
(§2) These findings were further confirmed in the MDA-MB-231 breast cancer xenografts (FIG. 24C) and PC3 prostate cancer xenografts (FIG. 24D). […] In these experiments, nab-paclitaxel was dosed sub-optimally at 10 mg/kg, daily for five cycles.

[1] = test system: human umbilical cord vein endothelial cells (HUVEC); experiment: HUVEC bead sprouting angiogenesis assay; type: cell-based; settings: 5 days
Procedure: First, the effect of SPARC on sprouting was studied in an in vitro angiogenesis model system that was prepared using human umbilical cord vein endothelial cells (HUVEC) as described by Nakatsu et al (Methods Enzymol. 443:65-82 (2008)). Low passage HUVEC grown in M199 media supplemented with 10% FBS (Gibco, Carlsbad, Calif.) were switched to EGM-2 media (Clonetics, Walkersville, Md.) 2 days before beading. Cytodex 3 microcarrier beads (Amersham Pharmacia Biotech, Piscataway, N.J.) were hydrated and washed with PBS (pH 7.4). 1×10^6 HUVEC cells were incubated with 2500 hydrated and sterilized beads in EGM-2 medium for 4 hours at 37° C. for coating. The coated beads were next embedded in 2 mg/mL fibrinogen in PBS with 0.15 units/mL aprotinin at a concentration of 500 beads/mL. Next, 0.625 units/mL thrombin was added and 0.5 mL of the mixture was added to each well of a 24 well plate. The solution was allowed to clot at RT for 5 minutes and 37° C. for another 15 min. After clotting 20,000 lung fibroblast cells in EGM-2 media were seeded in each well. Either 1, 10 or 100 μg/mL BioI SPARC protein in PBS, or PBS without protein was added to the growth medium and cultures were maintained for 5 days until sprouting was evaluated by light microscopy. The number of tubes formed/bead and the morphology of sprouting HUVEC cells in the cultures were determined using image pro software (Media Cybernetics, Bethesda, Md.).

MDA-MB-435-Luc+ = MDA-MB-435-Luc+ orthotopic metastatic model; type: in vivo, mice
Procedure: MDA-MB-435-Luc+ were implanted orthotopic in mammary fat pad (MFP) at 4×10^6 cells in 50% Matrigel and allowed to reach average tumor volume of 180 mm^3 before treatment. Treatments were: 2 cycles of 10 mg/kg nab-paclitaxel, 4 mg/kg SPARC, and bevacizumab biweekly. At appropriate time interval, the following organs were harvested for quantitation of metastasis: Proximal lymph nodes, contralateral lymph nodes, lungs, liver and brain. Statistical tests used included t-test and Mann Whitney-U.
Mice were monitored 2-3 times a week and tumor growth was recorded. Mice were sorted when tumor volumes reached 180 mm^3, and the first cycle of treatment was administered. Seven rest days were given between the first and second cycle. Bevacizumab and SPARC were continually administered during the rest period. Weight was measured periodically throughout the study to assess toxic effects from the therapy.
The following dosing schedules were followed: Control (Group 1); 10 mg/kg nab-paclitaxel daily for 3 to 5 cycles (Group 2); 4 mg/kg soluble SPARC (Bio 1) injected i.v. biweekly (Group 3); and 10 mg/kg nab-paclitaxel daily for two to five cycles and 4 mg/kg SPARC-biweekly (Group 4).
Total metastatic burden was also calculated. It is presented as measured luciferase activity in tissue extracts expressed in RLU normalized per mg protein. All contralateral lymph nodes were negative for all groups. There were a few incidences of metastasis occurred in the proximal lymph node, liver and brain. […] Liver metastasis occurred somewhat frequently in the both control and SPARC groups (present in 3 mice in each group). There was also one control mouse that had brain metastasis.

HT29 (colon) = test system: HT29 (colon)
Text: Female and male athymic NCr-nu mice between 5 and 6 weeks of age weighing approximately 20 g were purchased from Harlan, Inc. (Madison, Wis., USA). Human cancer cells HT29 (colon), PC3 (prostate), and MDA-MB-231 (breast) were propagated in cell culture and implanted subcutaneously at one million cells per flank of female (for MDA-MB-231 and HT29) or male (for PC3 prostate tumor) nude mice and allowed to grow to approximately 60-100 mm^3 before treatment was initiated. Treatments included 5-fluorouracil (5FU), docetaxel (Taxotere®), albumin-bound paclitaxel (nab-paclitaxel), nab-paclitaxel plus suntinib malate (Sutent®), or nab-paclitaxel plus bevacizumab (Avastin®) with or without exogenously administered SPARC). Control animals for each xenograft were administered PBS. The longest (length) and shortest (width) tumor diameters (millimeter) and tumor depth were measured twice weekly. The tumor volume was calculated with the formula: tumor volume (mm3)=width×length×depth. Tumor growth inhibition (TGI) was defined as the percentage of tumor volume reduction compared with the control group at the time of euthanasia for the control animals. Tumor doubling time was defined as the time required for the tumor volume to double […]. Animal weights were measured twice weekly. Statistical analysis was performed using the Prism program (GraphPad, San Diego, Calif., USA). Analysis of variance (ANOVA) statistic was used to compare tumor growth curves.

[2] = test system: endothelial cell tubule formation; experiment: TCS Cellworks AngioKit tubule formation assay; type: cell-based, human; settings: 11 days
Text: Next, the effect of SPARC on tubule formation was examined using the TCS cellworks human Angiokit model kit (TCS-ZHA-1000, TCS Cell Works Buckingham, UK). In this assay, the endothelial cells initially form small islands within the culture matrix. They subsequently begin to proliferate and then enter a migratory phase during which they move through the matrix to form threadlike tubule structures. These gradually join up (by 9-11 days) to form a network of anastomosing tubules which closely resembles a capillary bed.
24-well pre-seeded endothelial cell tissue culture plates containing early stage co-cultures (day 2-3) were used according to manufacturer's recommendations (TCS Cell Works, Buckingham, UK). The cultures were incubated at 37° C./5% CO2 for 11 days. Media on the cultures was changed with added test and control compounds on days 4, 7 and 9 after initial treatment, followed by fixation with 70% ethanol on day 11. Fixed cultures were subsequently stained as follows: Primary rabbit anti-CD31 antibody (Thermo Scientific) was diluted to a final concentration of 2 μg/mL in PBS/1% BSA blocking buffer. Then, 0.5 mL of diluted anti-CD31 antibody was added to each well and incubated for 1 h at 37° C. […]
The number and lengths of tubules formed were then evaluated by light microscopy. […] Total vessel number, total tubule area and the number of branch points can be similarly determined.

MDA-MB-231 (breast) = experiment: MDA-MB-231 breast cancer xenograft; type: in vivo, mice; settings: MDA-MB-231 xenograft, nab-paclitaxel 10 mg/kg, P<0.001 (FIG. 24C)
Procedure: as §1, §2

[3] = test system: recombinant human SPARC protein; experiment: Tube Formation Assay (AngioKit) with SPARC and SPARC binding antibodies; type: cell-based; settings: 10 μg/mL recombinant human SPARC in the culture media
Procedure: This assay was performed using the TCS Cellworks human AngioKit model kit (TCS-ZHA-1000, TCS Cell Works, Buckingham, UK) as described in Example 10 above. The media contained 10 μg/mL recombinant human SPARC protein. The media also contained 300 μg/mL of one of the above prepared mouse SPARC binding monoclonal antibodies (Imm12, Imm14, mHTI), or a control (mouse IgG).
To examine the effect of SPARC on tubule formation, and interference with that function by SPARC binding monoclonal antibodies, the number of tubules formed and their length was evaluated by light microscopy.

B1: SPARC: recombinant wild-type human SPARC (BIO1), exogenously administered (protein)
chain: APQQEALPDETEVVEETVAEVTEVSVGANPVQVEVGEFDDGAEETEEEVVAENPCQNHHCKHGKVCELDENNTPMCVCQDPTSCPAPIGEFEKVCSNDNKTFDSSCHFFATKCTLEGTKKGHKLHLDYIGPCKYIPPCLDSELTEFPLRMRDWLKNVLVTLYERDEDNNLLTEKQKLRVKKIHENEKRLEAGDHPVELLARDFEKNYNMYIFPVHWQFGQLDQHPIDGYLSHTELAPLRAPLIPMEHCTTRFFETCDLDNDKYIALDEWAGCFGIKQKDIDKDLVI
effect of SPARC administration on antitumor effects of nab-paclitaxel and bevacizumab (PC3 (prostate)): significantly inhibited
seeded HUVEC/beads that had developed sprouts ([1]; 1 μg/mL SPARC): less than 50%
average sprouts/bead ([1]; 10 μg/mL SPARC): 0.9 sprouts/bead
average sprouts/bead ([1]; 100 μg/mL SPARC): 1.9 sprouts/bead
tumor growth rate (MDA-MB-435-Luc+; MDA-MB-435-Luc+ mammary fat pad tumors): 23.16±4.38 mm3/day
average tumor volume (MDA-MB-435-Luc+; in 63 days): 1765 mm3
lung metastatic burden, average RLU/mg total protein (MDA-MB-435-Luc+; luciferase activity in lung tissue extracts): 31630±10820 RLU/mg total protein
mice positive for lung metastasis (MDA-MB-435-Luc+; mouse, in vivo): 9 of 9
mice with liver metastasis (MDA-MB-435-Luc+; mouse, in vivo): 3 mice
Tumor Volume on day 56 (MDA-MB-435-Luc+; mouse, in vivo, in mm³ (unit assumed)): 1524
% Inhibition (MDA-MB-435-Luc+; tumor volume on day 56): 35%
impact of SPARC treatment on the nab-paclitaxel/bevacizumab combination (HT29 (colon); HT29 xenograft (FIG. 24B)): minimal negative impact
Tumor growth inhibition (TGI) (HT29 (colon); HT29 xenograft, versus control group at euthanasia of control animals): 35.4%
angiogenic activity (tubule formation) ([2]; high concentration of SPARC (100 μg/mL)): significantly inhibited angiogenesis
angiogenic activity (tubule formation) ([2]; low concentrations of SPARC (1 and 10 μg/mL)): stimulate angiogenesis
effect of SPARC administration on antitumor effects of nab-paclitaxel and suntinib (MDA-MB-231 (breast)): significantly inhibited
tubule formation [3]: formation of numerous long tubules
